Measured values published in US20220175781A1, “CD40L COMPOSITIONS AND METHODS FOR TUNABLE REGULATION” (Obsidian Therapeutics, Inc., priority 2019, published 2022).

Columns and labels:
Format in all cases: cell-based
CD8 positive T cells = assay: CD40L MFI by FACS in transduced CD8 positive T cells
Method: Regulation of ecDHFR (R12Y, Y100I) DRD based construct OT-001662 and ER (N413D) DRD based construct OT-001666 were tested in CD8 positive T cells. For OT-001662, expressing cells, ligand was added 6 days after viral transduction at a dose of 50 μM TMP. OT-001666 expressing cells were treated with 0.5 μM Bazedoxifene or vehicle control, 5 days after transduction. Approximately 15-30k cells were analyzed per sample by FACS. All samples were compared to empty vector control as well as the constitutively expressed construct, OT-001661. Table 11 provides the mean fluorescence intensities (MFIs) obtained with each sample.

Jurkat cells = assay: Surface expression of CD40L by FACS in lentivirally transduced Jurkat cells; conditions: for CD40L positive percent of live cells / Geometric Mean of CD40L fluorescent intensity: FACS
Method: 50,000 Jurkat cells were transduced with lentiviruses corresponding to the constructs. OT-001661, OT-001685, OT-001662, or OT-001666 and cultured for 48h. Cells were split and incubated with ligands for 24h before analysis by flow cytometry.
Jurkat cells were treated with one of the following: 1 μM Shield-1, 50 μM TMP, 1 μM Bazedoxifene (BZD) or vehicle control. Surface expression of CD40L was measured using FACS and the results are show in Table 9. All values were normalized to mode.

T cells = assay: Dose response of TMP, Bazedoxifene or Raloxifene, % CD40L positive T cells; conditions: T cells
Method: T cells were transduced with OT-001662 or OT-001666. On day 4, cells were treated with increasing doses of TMP for T cells expressing OT-001662. Cells expressing OT-001666 were treated either with increasing concentrations of Bazedoxifene or Raloxifene. The data are shown in Table 30 as the percentage of CD40L positive T cells.

CD8+ T cells = assay: Ligand dose response, % CD40L positive cells, CD8+ T cells
Method: Ligand dose response curve experiments were performed with increasing doses of ligand using OT-001662 and OT-001666 constructs in both CD4+ as well as CD8+ T cells.
The experiments were conducted using three different volumes of virus for transduction i.e. 0.5, 2 and 10 μL.

HEK-Blue™ CD40 cells = assay: HEK-Blue CD40 SEAP reporter co-culture with transduced Jurkat cells; conditions: ligand 24 h (1 μM Shield-1, 50 μM TMP or 1 μM Bazedoxifene), recombinant soluble CD40L as standard
Method: Jurkat cells transduced with OT-001661, OT-001685, OT-001662, OT-001666, or OT-001667 were co-cultured with HEK-Blue™ CD40 cells (Invivogen, San Diego, Calif.). Cocultures were treated with ligands (1 μM Shield-1, 50 μM TMP, 1 μM Bazedoxifene (BZD) or vehicle control) for 24 hours and the secreted embryonic alkaline phosphatase (SEAP) reporter levels were measured in the media. All vehicle treated samples had background SEAP activity. Recombinant soluble CD40L was used as the standard in the experiments.

T cells (CD4+ and CD8+) = assay: Regulation of CD40L in T cells by different drug responsive domains; conditions: Ligand N/A
[1] = test system: Monocyte derived dendritic cells (mDC); assay: Cytokine production in mDC-T cell co-culture (MSD); conditions: mDC-T cell co-culture 2 days
Text: In order to engage dendritic cells in an immune response, dendritic cells must be converted to a functional state by an antigen-specific CD4+ helper T cell. Activation of the dendritic cells may be followed by the activation of CD8+ T cells by the dendritic cells, a process referred to as dendritic cell licensing. Engagement of the CD40L expressed on the CD4+ cells with the CD40 on the dendritic cells can result in (i) dendritic cell stimulation-measured by expression of co-stimulatory and MHC molecules (ii) proinflammatory cytokine release (e.g. IL12, TNFα and INFγ) (iii) epitope spreading. To measure the effect of CD40L expression that is tuned by the biocircuits of the present disclosure, CD4+ T cells or Jurkat cells expressing any of the CD40L constructs described herein were co-cultured with dendritic cells.
Dendritic cell function in response to co-culture with T cells expressing CD40L was evaluated in the presence of ligand or corresponding vehicle control. Monocyte derived dendritic cells (mDC) (CD14+) were isolated from fresh blood and cultured for 5 days with IL-4 (7.5 ng/mL) and GM-CSF (20 ng/mL). The mDCs were frozen down after the 5 day culture. T cells were transduced with OT-001662 and expanded for 9 days before being frozen down. mDCs and T cells were thawed and co-cultured 1:10 DC: T cell ratio (i.e. 5×10^4 DCs: 5×10^5 T cells). mDC and T cells were co-cultured for 2 days before cells were collected for flow cytometry and supernatants were collected for cytokine analysis. For evaluation of regulated constructs, ligand (various doses of TMP) was added at the time initiating the co-culture and was kept in the co-culture for 2 days. Cytokines were analyzed by MSD after a single freeze thaw cycle. All cells were cultured in complete RPMI with 10% FBS during the course of the experiment. SR indicates stabilization ratio.

[2] = ligand 24 h (1 μM Shield-1 OT-001685, 50 μM TMP OT-001662, 1 μM Bazedoxifene OT-001666)
[3] = vehicle 24 h (Ethanol 0.2% OT-001685, DMSO 0.5% OT-001662, DMSO 0.01% OT-001666)
[4] = constitutive construct, no DRD, no ligand

B1: OT-001666 (Met; ER (305-549 of WT, L384M, N413D, M421G, G521R, Y537S); Histidine; CD40L; stop) (ligand)
chain: MSLALSLTADQMVSALLDAEPPILYSEYDPTRPFSEASMMGLLTNLADRELVHMINWAKRVPGFVDLTLHDQVHLLECAWMEILMIGLVWRSMEHPGKLLFAPNLLLDRDQGKCVEGGVEIFDMLLATSSRFRMMNLQGEEFVCLKSIILLNSGVYTFLSSTLKSLEEKDHIHRVLDKITDTLIHLMAKAGLTLQQQHQRLAQLLLILSHIRHMSNKRMEHLYSMKCKNVVPLSDLLLEMLDAHRLHMIETYNQTSPRSAATGLPISMKIFMYLLTVFLITQMIGSALFAVYLHRRLDKIEDERNLHEDFVFMKTIQRCNTGERSLSLLNCEEIKSQFEGFVKDIMLNKEETKKENSFEMQKGDQNPQIAAHVISEASSKTTSVLQWAEKGYYTMSNNLVTLENGKQLTVKRQGLYYIYAQVTFCSNREASSQAPFIASLCLKSPGRFERILLRAANTHSSAKPCGQQSIHLGGVFELQPGASVFVNVTDPSQVSHGTGFTSFGLLKL
Q: Which results are given for B1?
A: CD40L MFI (CD8 positive T cells; +Ligand (50 μM TMP OT-001662; 0.5 μM Bazedoxifene OT-001666)): 33.1; CD40L MFI (CD8 positive T cells; Vehicle): 35.4; CD40L positive percent of live cells (Jurkat cells; [2]): 38.4%; Geometric Mean of CD40L fluorescent intensity (Jurkat cells; [2]): 421; CD40L positive percent of live cells (Jurkat cells; [3]): 0.024%; Geometric Mean of CD40L fluorescent intensity (Jurkat cells; [3]): 21.5; % CD40L positive T cells, dose response (T cells; increasing concentrations of Bazedoxifene): dose dependent increase; Raloxifene dependent expression (T cells; increasing concentrations of Raloxifene): observed only at the 1 μM dose; % CD40L positive cells (CD8+ T cells; 2 μL virus, BZD 0.05 nM): 0.69%; % CD40L positive cells (CD8+ T cells; 2 μL virus, BZD 0.5 nM): 0.52%; % CD40L positive cells (CD8+ T cells; 2 μL virus, BZD 5 nM): 0.71%; % CD40L positive cells (CD8+ T cells; 2 μL virus, BZD 50 nM): 3.32%; % CD40L positive cells (CD8+ T cells; 2 μL virus, BZD 500 nM): 60%; % CD40L positive cells (CD8+ T cells; 10 μL virus, BZD 0.05 nM): 0.5%; % CD40L positive cells (CD8+ T cells; 10 μL virus, BZD 0.5 nM): 0.2%; % CD40L positive cells (CD8+ T cells; 10 μL virus, BZD 5 nM): 0.23%; % CD40L positive cells (CD8+ T cells; 10 μL virus, BZD 50 nM): 17.7%; % CD40L positive cells (CD8+ T cells; 10 μL virus, BZD 500 nM): 68.5%; Soluble CD40L (HEK-Blue™ CD40 cells): 1824.7 pg/mL

B2: OT-001661: constitutively expressed full length CD40L construct (protein)
chain: MHMIETYNQTSPRSAATGLPISMKIFMYLLTVFLITQMIGSALFAVYLHRRLDKIEDERNLHEDFVFMKTIQRCNTGERSLSLLNCEEIKSQFEGFVKDIMLNKEETKKENSFEMQKGDQNPQIAAHVISEASSKTTSVLQWAEKGYYTMSNNLVTLENGKQLTVKRQGLYYIYAQVTFCSNREASSQAPFIASLCLKSPGRFERILLRAANTHSSAKPCGQQSIHLGGVFELQPGASVFVNVTDPSQVSHGTGFTSFGLLKL
Q: For B2, which CD40L positive (T cells (CD4+ and CD8+); All Cells) is on record?
A: 98%

Q: What about the MFI (T cells (CD4+ and CD8+); All Cells) of the same molecule?
A: 20451

Q: And the CD40L positive (T cells (CD4+ and CD8+); CD4+)?
A: 98.7%

Q: And the MFI (T cells (CD4+ and CD8+); CD4+)?
A: 24489

Q: What about the CD40L positive (T cells (CD4+ and CD8+); CD8+) of the same molecule?
A: 97.8%

Q: And the MFI (T cells (CD4+ and CD8+); CD8+)?
A: 14352

Q: What about the “CD40L positive percent of live cells” value (Jurkat cells; [4]) of the same molecule?
A: 99.4%

Q: What about the “Geometric Mean of CD40L fluorescent intensity” value (Jurkat cells; [4]) of the same molecule?
A: 10075

Q: And the “CD40L expression relative to untransduced cells” value (Jurkat cells; constitutive construct)?
A: higher than untransduced cells

Q: And the “Cytokine Production IFNg” value ([1]; DMSO)?
A: 12973 pg/mL

Q: And the “Cytokine Production IL12” value ([1]; DMSO)?
A: 58.935 pg/mL

Q: What about the “Cytokine Production TNFa” value ([1]; DMSO) of the same molecule?
A: 456.3242 pg/mL

Q: And the “Cytokine Production IFNg” value ([1]; TMP)?
A: 10939.9 pg/mL

Q: And the “Cytokine Production IL12” value ([1]; TMP)?
A: 86.229 pg/mL

Q: What about the “Cytokine Production TNFa” value ([1]; TMP) of the same molecule?
A: 440.0804 pg/mL

Q: And the “Soluble CD40L” value (HEK-Blue™ CD40 cells)?
A: 9341.40 pg/mL
